The DeepSol protein solubility set

Test: soluble on expression in E. coli; label from the status in PepcDB or PDB records

| Sequence | soluble on expression in E. coli |
| --- | --- |
| MIVLIDGPSGSGKTTFAGFLGEILGMRIVHFDDLYPGWHGLAAGVKIVTALLEGAGGYHRWDWANNVMGPWVEVPERNLIIEGVGSLAPSVVRAARQHGPVLTMLFDGPEQMRRSRALARDPFYEPWWEMWAEQEARHFATVETPDVTRGYP | not soluble |
| MLIRAMQKSDYEAVYKLWCEIKGFGIRSIDDSKENIENFLDRNPNLSVVAVIDEEIVGSILCGHDGRTGGFYHVCVHKDHRKKGIAHEMAKFCLEALKAQKINKIALIAFKNNDLGNEFWKHYGFTLREDANYYDLSLNEYNQTSFNA | not soluble |
| SCIIFLKFDPRPASKNAYRLILAANRDEVYSRPSKAAEFWGSSSEILSGLDMEEGKEGGSWLGISKRGKLAALTNYLEARQNPDAQGRGFLVSNYLTDNLDSLAYLRKVSSEAHLYNGFNLLTAEFRANEDTLCYYGNKGSSEPIHLKAGIYGLSNSLLETPWRKLQHGKQLFSSVVSKTLPPDGLVQELLHILNNEELNTPDPAQESQGVGYSNAMLRALSAVCVRSPGYGTRTNTVILIDREGNVSFTERTMQNCDITQWSTNSFHFRLQE | soluble |
| MKKTLYIFQNGELRRKDHSLYFETEERKRYIPVENTNDIYIFGEVDVSKRFLEFAAQKEIIVHYFNHYGYYVGSFYPREHLNSGHVVLKQAEHYIDPAKRLELACLFVQGSIRQMERVLKYYRSRLSDPEELEKALQLIEREEGKLSQANTVEQLMAVEGHIREAYYASFDAILRHPDFVFEKRTKRPPHNRLNALISFGNSIVYTMCLSEIYKTYLDPRIGFLHSTNFRRFSLNLDIAEIFKPIIVDRLIFTLVNKRMLSSKHFEKLTNGIVLNEEGRKLFVSELEKKMQTTVQHRHLGKSVSYRRLIRLELYKVQKHILGEKMYEPYAARW | not soluble |
| DEDDSADNIHAVSSERWRIHAATEIEDINTFFGTEYSSEEADTIGGLVIQELGHLPVRGEKVLIGGLQFTVARADNRRLHTLMATRVK | soluble |
| SNAPLLLGKKAPNLYMTDTTGTYRYLYDVQAKYTILFFWDSQCGHCQQETPKLYDWWLKNRAKGIQVYAANIERKDEEWLKFIRSKKIGGWLNVRDSKNHTDFKITYDIYATPVLYVLDKNKVIIAKRIGYENLDDFLVQYEKSLKTK | soluble |
| MIRHRFSAEDFHRMAEAGILGEDDRVELIRGEVVELSPVGKRHMAALKRLMNALFPLQQAKKALLQVQDPLRLFPDTEPQPDLALLAYRDDFYRERVPEAKDALLVVEVAETSLDHDLQVKLPLYAQAGIPEVWVVDLVREKVHVFRKPQGEGYGEAQALEDGELSVLGLKVPVKEVLP | soluble |
| MGGRSRWEIAQESTLALARKCEQFDPDGITVYLFSGKFKRYDDVTSAKVAQIFLENDPAGTTNLAGVLQDALNNYFQRKAAGKTKPNGETILVITDGEPDDRKAVFETIIHATRQMERDEELGISMIQVGSDAQATKFLKALDDQLQSVGAKFDICDTITLEDLEDMSLADVLMNAITDLEHHHHHH | not soluble |
| MSKTHPPELKKYMDKEMDLKLNGNRRVSGILRGFDPFMNMVIDEAVEYQKDGGSVNLGMTVIRGNSVVIMEPKERIS | not soluble |
| MLEVLVALAIFATAAISVIRSVSQHINTVSYLEEKMFAAMVVDNQMANVMLDTGALKAKNGTEELAGRTWYWKVTPVATTQPLLKAFDVSVATAKNASPVVTVRSYVAQ | not soluble |
| METFYRTHSYLVEHTNAPVRRDLMDEIDWNDRLIGIKGTRGVGKTTFLLQYAKEKFGTDHSCLFINMNNFYFSKYTLVEFAAEFVKRGGKVLLIDQVFKYPEWSHDLRACYEMFPTLKIIFTGSSVMRLKEENPELSGIAKVYYLRGFSFREYLNLQSGNCFRAYTLQEILENHEQIAKTILRNVKPLDYFQDYLHHGFYPFFLEKRNFSENLLKTMNMMIEVDILLIKQIELKYLSKIKKLLYLLAVDGPVAPNVSQLATEIQTSRATVMNYIKYLADARLINMVYPKGEEFPKKPSKLMMHNTNLMYSIYPVKVEEQDVLDTFFMNTLYKDHKLYKGDKGTSFMVDNGLHFRICAEGCKFKNNPNVYYALHKLELGHGNMIPLWLFGFLY | not soluble |
| AIANDEYYLELSENPVQFENASSVNNVFFDEANKQVFAVRSGGATGVVVKGPDDKSSVAFRMDDKGEVKCIKFSLGNKILAVQRTTKSVDFINFIPDYPHLEFSHECKTKNASILGFCWTNWNEIVFVTDQGIEFYQVLPDKRTLKLLKSQSINVNWYIYCPETAVLLLSTTVQGNVLQPFAFKTATMSKMSKFEIELPAVPKPAKLSLSERDIAVATIYDQLYVMYLKHHSRTTNSPGAEVVLYHLPREGTCKRTNVLRLNTTGKFAINVVDNLVVVHHQTTQTSLIYDIKLRELDGNVNVHQPVLPARSINPFKIPLTGPAAAPSQAPLPCELYSSSWSVFQPDIIISASEGFLWYLQVKLQPTLNLLQDKGKLMDFLLRRRDCKMVILSVCSQMLIGGDKGNLSVVATVFDKLNQVYKEYLDAEQAYTAVNEQNSCFTLYLANTYNNM | soluble |
| MGSDKIHHHHHHMKRMSCLLLGGLLLSGCGKEEAPPEPIRPVVFVEAQPESMQDFGRFAGNIQARYQSVLGFRVAGRIARRNVDVGSEVKKGDLLATLDPTDQQNNVRGRQGDLANVQAQWINAQANARRQQELFDRGVGAQAQLDVALTDLKTASSSLEQAKAAEQQARDQLSYSELHSDHDAVVTEWKVEAGQVVTAGQEVVTLARPDIKEAVIDLPDALADQLPRDVVFTVASQLNPDINTTATIREIEPQADRTTRTRRTRLSLAETPVAFRLGTAISVTLSSTITARMRLPINALQEVDGKRQIWIVDPQSQTVNPRAVNITSRDNDSFVLADGVKAGEKVVSAGVNSLKPGQKVKVDEESPR | not soluble |
| SFRKGKKRHSSSSSQSSEISTKSKSVDSSLGGLSRSSTVASLDTDSTKSSGQSNNNSDTCAEFRIKYVGAIEKLKLSEGKGLEGPLDLINYIDVAQQDGKLPFVPPEEEFIMGVSKYGIKVSTSDQYDVLHRHALYLIIRMVCYDDGLGVGKSLLALKTTDASNEEYSLWVYQCNSLEQAQAICKVLSTAFDSVLTSEKP | soluble |
| MAHHHHHHMKKLGLVLDAAAVEKSQRDLQSYQIKNNNSLQLRAFLLNESGMFTKDGRKLPGSVTKEVIDDTSKRIIGRGASGAVYFAKLKDGGPVALKHIPITSKPHRDEVDRELSFFSSQSNSPFVMKNLGAFWDSEEAAIVIPMEWMAYTLKDLSCFWEGIEETMLRDIFFQVVSGLVYLHDTKRVIHRDLKPSNLLIRDDGYVKIGDFGVSKLVHTLDVSSTYVGTMYFMAPERLEQGAYGFNSDVWSLGLTVLSTITGKNPWAPPEEMNIFQLLGRIAGDTTPTLPEKPAYSEEARDFVKKCLVRDPQERPSTAELLKHPFFKGCTEASAVANVKQGVDYMTRLINSDAKKNGLLKRSPEDVTKEVNAKLDRLGDL | soluble |
| MIDHAHLRLFQFCDSQFPTGAFSHSFGLETYIQRDTVHDEESFQQWLVLFLNEQLTYADGLTMRLVYDALNENDTKAILKLDRILFVQNLPKETRQGSKQMGNRMVKLASELYDSDWINWYHAQMKDKKASLHPAICFTMLGHHLGVDIETIIDYYLYQNVSSLTQNAVRAIPLGQTAGQRIVHKMIPIMKETRDHIMTIPASQLGITAPGLEINQMEHENVNVRIFISLEHHHHHH | not soluble |
| MGHHHHHHSHMSIFTPTNQIRLTNVAVVRMKRAGKRFEIACYKNKVVGWRSGVEKDLDEVLQTHSVFVNVSKGQVAKKEDLISAFGTDDQTEICKQILTKGEVQVSDKERHTQLEQMFRDIATIVADKCVNPETKRPYTVILIERAMKDIHYSVKTNKSTKQQALEVIKQLKEKMKIERAHMRLRFILPVNEGKKLKEKLKPLIKVIESEDYGQQLEIVCLIDPGCFREIDELIKKETKGKGSLEVLNLKDVEEGDEKFE | soluble |
| MGSDKIHHHHHHMHHNTWKGIILQKQGLLKPQSVQQICQNLNGLQAQFQPYVHIGFRNRMTNEAFQNQDWQASLTRQWSLRRTVHAYLKSEIPLYIHEGRMASVDYLETVSWDGALPQVKKKFYQVILEALETGPMTREELKILCRAENIGVEEEKQVFNAWGGLLRYMVERGEIYQEYGVKRFHRLRDFQPLPKKEAELEIARRYFTGFGPVSLADARYYFKENKSTVLKWMEQLDLKTVEVAGEERFYLGELEEAELPDCLFVAGFDQLLLGYEKKANPFFNPKYIRNIYTLTGIVKPVVFYKGRFVATWKRDKGTILLDIFEDITQQEEKELEHYRQMFEKIL | not soluble |
| MGSDKIHHHHHHTSEEREVFENQEGMHRLIPLIEAQTEEDLTPTMREYFAQIREYRKTPHVKGFGWFGNWTGKGNNAQNYLKMLPDSVDFVSLWGTRGYLSDEQKADLKFFQEVKGGKALLCWIIQDLGDQLTPKGLNATQYWVEEKGQGNFIEGVKAYANAICDSIEKYNLDGFDIDYEPGYGHSGTLANYQTISPSGNNKMQVFIETLSARLRPAGRMLVMDGQPDLLSTETSKLVDHYIYQAYWESSTSSVIYKINKPNLDDWERKTIITVEFEQGWKTGGITYYTSVRPELNSMEGNQILDYATLDLPSGKRIGGIGTYHMEYDYPNDPPYKWLRKALYFGNQVYPGKFD | not soluble |
| MSLPQFSVDLCLFDLDGTIVSTTTAAESAWKKLCRQHGVDPVELFKHSHGARSQEMMKKFFPKLDNTDNKGVLALEKDMADNYLDTVSLIPGAENLLLSLDVDTETQKKLPERKWAIVTSGSPYLAFSWFETILKNVGKPKVFITGFDVKNGKPDPEGYSRARDLLRQDLQLTGKQDLKYVVFEDAPVGIKAGKAMGAITVGITSSYDKSVLFDAGADYVVCDLTQVSVVKNNENGIVIQVNNPLTRDEGHHHHHH | soluble |
| MRMRLMLLGGGNALGQALIRLGAEEDIGFLAPRPPEQGWDAASLTTLLDETRPDAVINLAFYHDWFQAEQVEAERLGAQERAVERLAELCQHYEILLVQPSSYRVFDGARATAYSEKDETLPLGLRGQALWRMEQSVRAACPRHVLIRFGWLLDESPNGLLGRFLSRAEQPQPLFLADDRRGNPTPVDDAARVVLSVLKQLDCQAPLWGTYHYGGLEATTTLALGQVILNEARTYRSNLIQEPSAEAHAARPDALDEPQHAVMVCKKILHTFGIKPRAWRAGLPALLDRYYRHV | not soluble |
| MDLRRFITLKTVVEEGSFLRASQKLCCTQSTVTFHIQQLEQEFSVQLFEKIGRRMCLTREGKKLLPHIYELTRVMDTLREAAKKESDPDGELRVVSGETLLSYRMPQVLQRFRQRAPKVRLSLQSLNCYVIRDALLNDEADVGVFYRVGNDDALNRRELGEQSLVLVASPQIADVDFTEPGRHNACSFIINEPQCVFRQIFESTLRQRRITVENTIELISIESIKRCVAANIGVSYLPRFAVAKELECGELIELPFGEQSQTITAMCAHHAGKAVSPAMHTFIQCVEESFVAG | soluble |
| MLKVAIAEDDFRVAQIQEEFLSKIKDVTVIGKALNAKETIELLQKEEIDLLLLDNYLPDGIGTDLLPQIHADFPNVDVIMVTAANENYMLEKAIRNGVSNYLIKPVTLEKFVRTIEDYKRKKQLLHSNNEVNQALIDNFFGTSQTQDIKNLPTGVDPLTLQKVKGIIKGFEEGITIEEMGEQMGASRTTARRYLEYLVATNECTVEYKYGIIGRPERKYRIGRGL | not soluble |
| SDTGFADSNNDSSPGEGSKRGNSGIEGPVPMDVELAAAKSKRLSEPFFLKNVLLEKSGDTSDLTALALSVHAVMLESGFVLLDHGSDKFSFSKKLLSVSLRYTLPELITRKDTNTVESVTVRFQNIGPRLVVYGTLGGSCKRVHMTSLDKSRFLPVIDLVVDTLKFEKQGSSSYYREVFMLWRMVKDELVIPLLIGLCDKAGLESPPCLMLLPTELKLKILELLPGVSIGYMACVCTEMRYLASDNDLWEHKCLEEGKGCLWKLYTGDVDWKRKFASFWRRKRLDLLARRNPPIKKSNPRFPTLFPDRRDRREPFDRFGPSDFYRFGLRDPRDRFGPRDPRDPHFYGFRY | soluble |
